According to patent US12397036B2, “Peptide exchange protein” (Cambridge Enterprise Limited, priority 2018, dated 2025):

Key:
[1] = target: T1, surface MHC I molecules (Homo sapiens, UniProt P04439, A269V/D140Y/D185E/E176V/E277Q/E87N/F33Y/G231S/I121R/I166T/I218V/L180W/L300P/L318F/N151K/P208A/P217A/Q86R/R138H/R169H/S129P/T345S/V36M); assay: TAPBPR remaining on cell surface after peptide binding (PeTe4 staining); assay type: cell-based; conditions: 100 nM soluble TAPBPR^WT, then 10 nM peptide 15 min
T1 construct: HLA-A68 (MHC class I) expressed on HeLa; endogenous in cells; host or cells: HeLaM and derivatives (TAPBPR-KO with or without TAPBPR/tapasin constructs, +Her2, Her2-KO, +PDL1, pD-GFP); in some arms HeLaM-HLA-ABC-KO re-expressing HLA-A*68:02
Source text: Subsequently, the amount of TAPBPR remaining on the cell surface was detected by staining with the TAPBPR specific mAb PeTe4.

[2] = target: T2, H-2K^b expressed on EL4 (Mus musculus, UniProt P01901); assay: […] loading on EL4 cells (SIINFEK*L and 25-D1.16 mAb); assay type: cell-based, murine; conditions: 1 μM TAPBPR, 1 nM peptide 30 min
T2 construct: surface expressed H-2K^b are relatively more peptide receptive compared to human MHC I molecules; endogenous in cells; host or cells: EL4 (murine tumour cell line)
T2 sequence (P01901 22-369): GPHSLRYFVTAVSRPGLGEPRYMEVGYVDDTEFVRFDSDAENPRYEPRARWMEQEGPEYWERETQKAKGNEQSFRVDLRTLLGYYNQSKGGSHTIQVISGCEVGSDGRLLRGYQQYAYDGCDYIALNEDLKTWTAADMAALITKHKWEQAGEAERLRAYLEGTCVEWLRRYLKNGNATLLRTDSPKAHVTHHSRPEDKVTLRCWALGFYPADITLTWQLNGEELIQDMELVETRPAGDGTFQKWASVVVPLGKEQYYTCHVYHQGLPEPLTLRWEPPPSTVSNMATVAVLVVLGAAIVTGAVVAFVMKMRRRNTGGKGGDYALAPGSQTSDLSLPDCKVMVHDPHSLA
T2 sequence (P01887 21-119 partner): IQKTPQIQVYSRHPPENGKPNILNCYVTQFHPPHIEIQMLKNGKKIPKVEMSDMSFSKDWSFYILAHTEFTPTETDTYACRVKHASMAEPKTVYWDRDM
Description: (§1) Histograms are representative of three independent experiments. (19d) Bar graphs show the MFI of 25-D1.16−/+SD from three independent experiments. (19e) OT1 killing of EL4 cells treated −/+1 μM soluble TAPBPR^WT or TAPBPR^TN5, followed by incubation with 1 nM […] peptide. Error bars−/+s.e.m from triplicate wells. Data is representative of three independent experiments. Note: surface expressed H-2K^b are relatively more peptide receptive compared to human MHC I molecules. […] As OT1 T cells are highly efficient cytotoxic cells, killing 80-100% of targets after 1-4 hours, we decreased the concentration of […] used in these experiments to 1 nM in order to differentiate between TAPBPR-mediated and background peptide binding, otherwise we would not observe an additive effect of soluble TAPBPR on target cell killing.

[3] = target: T3, HLA-A*68:02 (Homo sapiens, UniProt P04439, A269V/D140Y/D185E/E176V/E277Q/E87N/F33Y/G231S/I121R/I166T/I218V/L180W/L300P/L318F/N151K/P208A/P217A/Q86R/R138H/R169H/S129P/T345S/V36M); assay: Fluorescent peptide binding to HeLaM cells treated with exogenous soluble TAPBPR; assay type: cell-based
T3 construct: HLA-A68 (MHC class I) expressed on HeLa; endogenous in cells; host or cells: HeLaM and derivatives (TAPBPR-KO with or without TAPBPR/tapasin constructs, +Her2, Her2-KO, +PDL1, pD-GFP); in some arms HeLaM-HLA-ABC-KO re-expressing HLA-A*68:02
Description: (§2) Target cell lines were seeded at 25,000-30,000 cells/well in 12-well plates and stimulated with IFN-γ. Following the stimulation period, the cells were washed 3 times with 1×PBS and incubated with 300 μL pre-warmed opti-MEM (Thermo Fisher Scientific, UK). In case the peptide binding was done in the presence of recombinant TAPBPR, the cells were then treated with or without recombinant TAPBPR (100 nM for HLA-A*68:02 or 1 μM for HLA-A*02:01). After 15 min, the desired TAMRA-labelled peptide was added to the cells and incubated at 37° C. (15 min for HLA-A*68:02 or 60 min for HLA-A*02:01). In case the peptide binding was facilitated by over-expressed TAPBPR, the labelled peptide was directly added to the cells, without using recombinant TAPBPR. Following the peptide treatment, the cells were washed three times in 1×PBS and harvested. The level of bound peptide/cell was determined by flow cytometry, using the YelFL1 channel (Cytek).
We next asked whether the exogenous TAPBPR bound to surface MHC class I molecules was capable of peptide exchange similarly to the membrane anchored version. Following incubation of cells for 15 min at 37° C. in the presence or absence of 100 nM exogenous TAPBPR, cells were treated with or without 10 nM fluorescent peptide for an additional 15 mins.

[4] = target: T4, HLA-A*02:01 (Homo sapiens, UniProt P04439, D140Y/D185E/D98H/E176V/E277Q/G131W/G231S/I119V/I121R/I166T/I218V/L300P/L318F/N151K/N90K/P208A/P217A/Q86G/Q94H/R138H/R169H/T345S); assay type: cell-based; conditions: ETV* (HLA-A*68:02) and SRY* (HLA-B*27) controls
T4 construct: expressed in transfected cells; host or cells: HeLaM-HLA-ABC-KO
Description: (g) Dose response curves of IFN-γ treated HeLaM and HeLaM-HLA-ABC^KO cells treated −/+100 nM TAPBPR with increasing concentrations of ETVSK*QSNV for 15 min at 37° C. Line graphs show MFI−/+s.e.m from three independent experiments. […] (h) Histograms of the typical fluorescent peptide binding observed using flow cytometry. (i) Bar graphs showing the MFI of fluorescent peptide binding to HeLaM HLA-ABC^KO+A2−/+s.e.m from two independent experiments with duplicates. ***P≤0.001, ****P≤0.0001, n/s not significant, using unpaired two-tailed t-test.
as §2, with “Following the peptide treatment, the cells were washed three times in 1×PBS and harvested.” left out

[5] = tested on: EL4 tumour cells; assay: OT1 T cell killing of EL4 tumour cells; assay type: cell-based, murine; conditions: 1 μM TAPBPR, 1 nM SIINFEKL
Description: as §1
Although the results above provide indication that soluble TAPBPR could be utilised to decorate target cells with immunogenic peptides and enhance T cell responses against tumours, we next determined whether this could result in enhanced killing of tumour cells. We assessed killing of murine EL4 tumour cells by OT1 T cells in the presence of human TAPBPR and very low concentrations of […] peptide.

B1: soluble TAPBPR^WT: secreted His-tagged luminal domain of human TAPBPR, lacking transmembrane domain and cytoplasmic tail; SEQ ID NO: 2 (protein)
chain: KPHPAEGQWRAVDVVLDCFLVKDGAHRGALASSEDRARASLVLKQVPVLDDGSLEDFTDFQGGTLAQDDPPIIFEASVDLVQIPQAEALLHADCSGKEVTCEISRYFLQMTETTVKTAAWFMANVQVSGGGPSISLVMKTPRVAKNEVLWHPTLNLPLSPQGTVRTAVEFQVMTQTQSLSFLLGSSASLDCGFSMAPGLDLISVEWRLQHKGRGQLVYSWTAGQGQAVRKGATLEPAQLGMARDASLTLPGLTIQDEGTYICQITTSLYRAQQIIQLNIQASPKVRLSLANEALLPTLICDIAGYYPLDVVVTWTREELGGSPAQVSGASFSSLRQSVAGTYSISSSLTAEPGSAGATYTCQVTHISLEEPLGASTQVVPPERR
modifications: His tag; TAPBPR luminal domain (mature sequence without 21 aa leader sequence)
dissociation of TAPBPR from cells after peptide binding [1]: dissociate from cells upon high affinity peptide binding
loading of SIINFEKL onto H-2K^b [2]: significantly enhanced the loading of SIINFEKL
binding of exogenous fluorescent peptides ETVSK*QSNV and YVVPKVAK*V to HeLaM ([3]; 100 nM exogenous TAPBPR 15 min, then 10 nM peptide 15 min): significant enhancement in the binding of exogenous fluorescent peptides
exogenous peptide binding over increasing ETVSK*QSNV concentrations ([3]; -/+100 nM TAPBPR, 15 min): enhanced exogenous peptide binding to cells over a wide range of peptide concentrations
binding of peptides specific for other MHC class I molecules onto HLA-A2 [4]: did not promote the binding
OT1 cytotoxic T cell killing of peptide-pulsed EL4 target cells [5]: significant enhancement in killing
